{"source": "paper PMC5146963", "key": {"[1]": {"test_system": "EcFrmR (Escherichia coli K12)", "test": "BLI", "conditions": "BLItz, 50 mM Tris-HCl pH 8.0, 0.5 M NaCl, 20 C, 100 nM biotinylated DNA loaded on SA tips, EcFrmR concentrations as tetramer"}, "[2]": {"target": "T1, EcFrmR (Escherichia coli K12) (UniProt P0AAP3)", "T1 sequence": "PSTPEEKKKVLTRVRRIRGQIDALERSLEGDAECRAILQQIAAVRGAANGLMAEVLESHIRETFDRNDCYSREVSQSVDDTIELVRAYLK", "test": "BLI", "conditions": "BLItz, 50 mM Tris-HCl pH 8.0, 0.5 M NaCl, 20 C; 100 nM biotinylated DNA loaded on SA tips; EcFrmR concentrations as tetramer"}}, "note": "Values joined by “and” are separate entries in the source; they are usually repeats but may differ in a detail not shown here. Equal entries are not always repeated.", "data": [{"substance": "PydhY", "values": [{"measurement": "Kd", "setting": "[1]; no Zn, no HCHO, kf 1950 M-1 s-1, kr 0.007 s-1, text ~3600", "result": 3600, "unit": "nM"}]}, {"substance": "GTTAAGGGCTCAGAATAATCACATTATTTTTTCTCCTAACCATAAAGGATTAGTTTATCGGCGTTAATCTTTTCTCATACACTATCGGGTTAGGGAAAATATCTGGTGTTGGGGACAGAGTCAGCAGCGTATTAGTTGAATGCTTAATATCAGGCTGCTGAATTGTCAGCACTGTGTTTGCGAAGAGGATGCGAAATAAATGAACCCGGTTGATCGTCCACTATTAG (double strand) [PydhY]", "values": [{"measurement": "Kd", "setting": "[2]", "result": 3600, "unit": "nM"}]}, {"substance": "Pfrm (frmRAB promoter)", "values": [{"measurement": "Kd", "setting": "[1]; Zn(II)4-loaded tetramer, kf 5660 M-1 s-1, kr 0.003 s-1", "result": 520, "unit": "nM"}, {"measurement": "Kd", "setting": "[1]; no Zn, no HCHO, kf 13000 M-1 s-1, kr 0.0028 s-1, text ~220, upper limit", "result": 220, "unit": "nM"}]}, {"substance": "GGCCTTCCCTGCCGATTAGCCCCCCCCCCTTTCCTCTTTGTTTTCCGACCACATTCACCGGATAAATTTTATTCTCCAGTGTTATATACTATAGGGGGGTATGCATTGACATATAGAATACCCCCCTATAGTATATTGCATGCAGATGATGAGGTGCGAAATGCCCAGTACTCCGGAAGAGAAGAAA (double strand) [Pfrm (frmRAB promoter)]", "values": [{"measurement": "Kd", "setting": "[2]", "result": "220 nM and 520 nM"}]}]}
